The supplement of paper PMC7125110
± gives the standard error. For some assays here: Fewer inactive variants are shown than the library holds.

B1: glmS ribozyme (parent)
chain: AUAAAAGCGCCAGAACUACAGAAAUGUAGUUGACGAGGAGGAGGUUUAUCGAAUUUUCGGCGGAUGCCUCCAAA

Experiments:
Details in all cases: with glucosamine-6-phosphate
[1] = variants of: B1; assay: kcat; higher = faster cleavage; RNA array
Method in brief: (§1)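 Over ~14 h at 37 °C, tiles were imaged as glucosamine-6-phosphate (40 μM to 10 mM) in HEPES/KCl/Mg(OAc)2 buffer flowed across sequenced MiSeq chips. The chips carried barcoded ribozyme variants transcribed in situ by E. coli RNA polymerase and tracked with a hybridised Cy3 probe. After normalisation to baseline and to non-cleaving reference variants, one- or two-exponential decay fits of per-tile medians gave kobs. kcat and KM followed from weighted Michaelis–Menten fits across concentrations.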

[2] = variants of: B1; assay: KM; higher = weaker cofactor use; RNA array
Method in brief: as §1

[3] = variants of: B1; assay: self-cleavage kobs at 10000 uM GlcN6P; higher = faster cleavage; RNA array
Method in brief: as §1

[4] = variants of: B1; assay: self-cleavage kobs at 40 uM GlcN6P; higher = faster cleavage; RNA array
Method in brief: as §1

[5] = variants of: B1; assay: self-cleavage kobs at 160 uM GlcN6P; higher = faster cleavage; RNA array
Method in brief: as §1

[6] = variants of: B1; assay: self-cleavage kobs at 640 uM GlcN6P; higher = faster cleavage; RNA array
Method in brief: as §1

[7] = variants of: B1; assay: self-cleavage kobs at 2500 uM GlcN6P; higher = faster cleavage; RNA array
Method in brief: as §1

A14U A48U
kcat [1]: 0.000103 ± 7.3e-06 s⁻¹ | KM [2]: 9240 ± 1300 µM | self-cleavage kobs at 10000 uM GlcN6P [3]: 5.37e-05 ± 9.7e-06 s⁻¹

C58A
kcat [1]: 0.000863 ± 0.00012 s⁻¹ | KM [2]: 4110 ± 820 µM | self-cleavage kobs at 40 uM GlcN6P [4]: 1.13e-05 ± 2.2e-06 s⁻¹ | self-cleavage kobs at 160 uM GlcN6P [5]: 3.84e-05 ± 2.2e-06 s⁻¹ | self-cleavage kobs at 640 uM GlcN6P [6]: 0.000118 ± 2.7e-06 s⁻¹ | self-cleavage kobs at 2500 uM GlcN6P [7]: 0.000305 ± 7.2e-06 s⁻¹ | self-cleavage kobs at 10000 uM GlcN6P [3]: 0.000665 ± 2.3e-05 s⁻¹

G29C U31C
kcat [1]: 0.000387 ± 3.9e-05 s⁻¹ | KM [2]: 3280 ± 690 µM | self-cleavage kobs at 640 uM GlcN6P [6]: 5.78e-05 ± 1.8e-05 s⁻¹ | self-cleavage kobs at 2500 uM GlcN6P [7]: 0.000184 ± 3.4e-05 s⁻¹ | self-cleavage kobs at 10000 uM GlcN6P [3]: 0.000284 ± 4.2e-05 s⁻¹

A6U U54G
kcat [1]: 0.000293 ± 3e-05 s⁻¹ | KM [2]: 3960 ± 740 µM | self-cleavage kobs at 640 uM GlcN6P [6]: 3.62e-05 ± 8.4e-06 s⁻¹ | self-cleavage kobs at 2500 uM GlcN6P [7]: 0.000122 ± 1.5e-05 s⁻¹ | self-cleavage kobs at 10000 uM GlcN6P [3]: 0.000204 ± 2.5e-05 s⁻¹

G66A C68G
kcat [1]: 6.98e-05 ± 9.4e-06 s⁻¹ | self-cleavage kobs at 160 uM GlcN6P [5]: 3.51e-05 ± 1.2e-05 s⁻¹ | self-cleavage kobs at 640 uM GlcN6P [6]: 5.08e-05 ± 7.5e-06 s⁻¹ | self-cleavage kobs at 2500 uM GlcN6P [7]: 4.73e-05 ± 1e-05 s⁻¹ | self-cleavage kobs at 10000 uM GlcN6P [3]: 7.85e-05 ± 7.5e-06 s⁻¹

G29A U55A
kcat [1]: 0.00461 ± 0.0011 s⁻¹ | KM [2]: 1320 ± 440 µM | self-cleavage kobs at 40 uM GlcN6P [4]: 0.000165 ± 2e-05 s⁻¹ | self-cleavage kobs at 160 uM GlcN6P [5]: 0.000532 ± 9.2e-05 s⁻¹ | self-cleavage kobs at 640 uM GlcN6P [6]: 0.00123 ± 0.00015 s⁻¹ | self-cleavage kobs at 2500 uM GlcN6P [7]: 0.00332 ± 0.00066 s⁻¹ | self-cleavage kobs at 10000 uM GlcN6P [3]: 0.00456 ± 0.00065 s⁻¹

A14U U57G
kcat [1]: 2.1e-05 ± 4e-06 s⁻¹ | self-cleavage kobs at 40 uM GlcN6P [4]: < 1e-05 s⁻¹

A48G A53G
kcat [1]: 0.00014 ± 3.1e-05 s⁻¹ | self-cleavage kobs at 2500 uM GlcN6P [7]: 8.53e-05 ± 1.3e-05 s⁻¹ | self-cleavage kobs at 10000 uM GlcN6P [3]: 0.000105 ± 1.2e-05 s⁻¹

A12G U45C
kcat [1]: 6.32e-05 ± 3.9e-06 s⁻¹ | KM [2]: 2510 ± 620 µM | self-cleavage kobs at 2500 uM GlcN6P [7]: 3.29e-05 ± 1.6e-05 s⁻¹ | self-cleavage kobs at 10000 uM GlcN6P [3]: 5.04e-05 ± 8e-06 s⁻¹

A42U A48U A64U C68U
kcat [1]: < 1e-05 s⁻¹ | KM [2]: 11.3 ± 3.5 µM | self-cleavage kobs at 2500 uM GlcN6P [7]: < 1e-05 s⁻¹ | self-cleavage kobs at 10000 uM GlcN6P [3]: < 1e-05 s⁻¹

U30A A42U
kcat [1]: 1.63e-05 ± 1.2e-07 s⁻¹ | KM [2]: 588 ± 46 µM | self-cleavage kobs at 160 uM GlcN6P [5]: < 1e-05 s⁻¹ | self-cleavage kobs at 10000 uM GlcN6P [3]: 1.54e-05 ± 7.6e-06 s⁻¹

A15G U65A C71A
kcat [1]: 0.000944 ± 0.0002 s⁻¹ | KM [2]: 755 ± 320 µM | self-cleavage kobs at 40 uM GlcN6P [4]: 3.84e-05 ± 1.7e-05 s⁻¹ | self-cleavage kobs at 640 uM GlcN6P [6]: 0.000466 ± 5.6e-05 s⁻¹ | self-cleavage kobs at 2500 uM GlcN6P [7]: 0.000535 ± 0.00018 s⁻¹ | self-cleavage kobs at 10000 uM GlcN6P [3]: 0.000965 ± 0.00023 s⁻¹

U46A U54G
kcat [1]: 0.00254 ± 0.00049 s⁻¹ | KM [2]: 1180 ± 400 µM | self-cleavage kobs at 40 uM GlcN6P [4]: 8.77e-05 ± 2e-05 s⁻¹ | self-cleavage kobs at 160 uM GlcN6P [5]: 0.000213 ± 5.2e-05 s⁻¹ | self-cleavage kobs at 640 uM GlcN6P [6]: 0.00113 ± 0.00014 s⁻¹ | self-cleavage kobs at 2500 uM GlcN6P [7]: 0.00191 ± 0.00028 s⁻¹ | self-cleavage kobs at 10000 uM GlcN6P [3]: 0.00205 ± 0.00028 s⁻¹

C11A G37U
kcat [1]: 1.35e-05 ± 3.5e-06 s⁻¹ | self-cleavage kobs at 160 uM GlcN6P [5]: < 1e-05 s⁻¹

C11A C16U
kcat [1]: 0.000159 ± 1.5e-05 s⁻¹ | KM [2]: 1110 ± 340 µM | self-cleavage kobs at 640 uM GlcN6P [6]: 6.65e-05 ± 1.5e-05 s⁻¹ | self-cleavage kobs at 2500 uM GlcN6P [7]: 9.79e-05 ± 1.5e-05 s⁻¹ | self-cleavage kobs at 10000 uM GlcN6P [3]: 0.000151 ± 1.8e-05 s⁻¹

U30C C58G C68A
kcat [1]: 5.09e-05 ± 2.1e-05 s⁻¹ | self-cleavage kobs at 640 uM GlcN6P [6]: 9.15e-05 ± 3.9e-05 s⁻¹ | self-cleavage kobs at 2500 uM GlcN6P [7]: 7.09e-05 ± 1.9e-05 s⁻¹

C10G A12U
kcat [1]: 8.15e-05 ± 3.2e-05 s⁻¹

U31A C50A G51U A53G
kcat [1]: < 1e-05 s⁻¹ | self-cleavage kobs at 160 uM GlcN6P [5]: < 1e-05 s⁻¹

G63C U69A
kcat [1]: 1.18e-05 ± 4.3e-06 s⁻¹

A15U A52U
kcat [1]: 0.000143 ± 1.2e-05 s⁻¹ | KM [2]: 1610 ± 370 µM | self-cleavage kobs at 40 uM GlcN6P [4]: < 1e-05 s⁻¹ | self-cleavage kobs at 640 uM GlcN6P [6]: 3.6e-05 ± 1e-05 s⁻¹ | self-cleavage kobs at 2500 uM GlcN6P [7]: 9.15e-05 ± 9.9e-06 s⁻¹ | self-cleavage kobs at 10000 uM GlcN6P [3]: 0.000119 ± 1.5e-05 s⁻¹

G41U A64G
kcat [1]: 0.000821 ± 6e-05 s⁻¹ | KM [2]: 2970 ± 430 µM | self-cleavage kobs at 160 uM GlcN6P [5]: 3.5e-05 ± 9.6e-06 s⁻¹ | self-cleavage kobs at 640 uM GlcN6P [6]: 0.00015 ± 2.3e-05 s⁻¹ | self-cleavage kobs at 2500 uM GlcN6P [7]: 0.000414 ± 5.2e-05 s⁻¹ | self-cleavage kobs at 10000 uM GlcN6P [3]: 0.000621 ± 4.9e-05 s⁻¹

A36C U54A
kcat [1]: < 1e-05 s⁻¹ | self-cleavage kobs at 160 uM GlcN6P [5]: < 1e-05 s⁻¹

A12C U69C
kcat [1]: 0.0042 ± 0.0012 s⁻¹ | KM [2]: 1520 ± 630 µM | self-cleavage kobs at 40 uM GlcN6P [4]: 0.000133 ± 2.3e-05 s⁻¹ | self-cleavage kobs at 160 uM GlcN6P [5]: 0.000486 ± 0.00013 s⁻¹ | self-cleavage kobs at 640 uM GlcN6P [6]: 0.000885 ± 0.0002 s⁻¹ | self-cleavage kobs at 2500 uM GlcN6P [7]: 0.00295 ± 0.00069 s⁻¹ | self-cleavage kobs at 10000 uM GlcN6P [3]: 0.00396 ± 0.00074 s⁻¹

C50A U55G
kcat [1]: 2.27e-05 ± 2.2e-06 s⁻¹

A14C C50U
kcat [1]: 1.4e-05 ± 6.4e-06 s⁻¹

A12C C58A
kcat [1]: 0.000734 ± 2.1e-05 s⁻¹ | self-cleavage kobs at 2500 uM GlcN6P [7]: 0.000104 ± 1.8e-05 s⁻¹ | self-cleavage kobs at 10000 uM GlcN6P [3]: 0.000291 ± 4.6e-05 s⁻¹

A36C C58G
kcat [1]: 2.16e-05 ± 5.9e-06 s⁻¹

C8U G35A U45A U69G
kcat [1]: 1.02e-05 ± 2.7e-06 s⁻¹

A39C G66A
kcat [1]: 0.004 ± 0.00092 s⁻¹ | KM [2]: 2860 ± 890 µM | self-cleavage kobs at 40 uM GlcN6P [4]: 7.75e-05 ± 1.2e-05 s⁻¹ | self-cleavage kobs at 160 uM GlcN6P [5]: 0.000194 ± 3.3e-05 s⁻¹ | self-cleavage kobs at 640 uM GlcN6P [6]: 0.000666 ± 8.8e-05 s⁻¹ | self-cleavage kobs at 2500 uM GlcN6P [7]: 0.00181 ± 0.00027 s⁻¹ | self-cleavage kobs at 10000 uM GlcN6P [3]: 0.0033 ± 0.00049 s⁻¹

A39C U56G
kcat [1]: 0.00414 ± 0.0013 s⁻¹ | KM [2]: 4460 ± 1800 µM | self-cleavage kobs at 40 uM GlcN6P [4]: 5.55e-05 ± 7.3e-06 s⁻¹ | self-cleavage kobs at 160 uM GlcN6P [5]: 0.000133 ± 1.4e-05 s⁻¹ | self-cleavage kobs at 640 uM GlcN6P [6]: 0.000539 ± 6.5e-05 s⁻¹ | self-cleavage kobs at 2500 uM GlcN6P [7]: 0.00125 ± 0.00015 s⁻¹ | self-cleavage kobs at 10000 uM GlcN6P [3]: 0.00322 ± 0.00035 s⁻¹

A42G U46A
kcat [1]: 0.00476 ± 0.00084 s⁻¹ | KM [2]: 1200 ± 320 µM | self-cleavage kobs at 40 uM GlcN6P [4]: 0.000149 ± 2.5e-05 s⁻¹ | self-cleavage kobs at 160 uM GlcN6P [5]: 0.000896 ± 0.00031 s⁻¹ | self-cleavage kobs at 640 uM GlcN6P [6]: 0.00178 ± 0.00057 s⁻¹ | self-cleavage kobs at 10000 uM GlcN6P [3]: 0.00455 ± 0.00072 s⁻¹

A6G U45A
kcat [1]: 0.000591 ± 0.00015 s⁻¹ | self-cleavage kobs at 2500 uM GlcN6P [7]: 0.000454 ± 0.00011 s⁻¹ | self-cleavage kobs at 10000 uM GlcN6P [3]: 0.000455 ± 8.7e-05 s⁻¹

G13U G63U
kcat [1]: < 1e-05 s⁻¹ | self-cleavage kobs at 40 uM GlcN6P [4]: < 1e-05 s⁻¹

A52G C71A
kcat [1]: 0.000593 ± 8.1e-05 s⁻¹ | KM [2]: 3190 ± 730 µM | self-cleavage kobs at 160 uM GlcN6P [5]: 3.52e-05 ± 1.4e-05 s⁻¹ | self-cleavage kobs at 640 uM GlcN6P [6]: 9.96e-05 ± 1.3e-05 s⁻¹ | self-cleavage kobs at 2500 uM GlcN6P [7]: 0.000247 ± 3.1e-05 s⁻¹ | self-cleavage kobs at 10000 uM GlcN6P [3]: 0.000466 ± 5.9e-05 s⁻¹

A48G U57C C61A
kcat [1]: < 1e-05 s⁻¹ | self-cleavage kobs at 2500 uM GlcN6P [7]: < 1e-05 s⁻¹

C16G A53C
kcat [1]: 0.000746 ± 0.0001 s⁻¹ | KM [2]: 1750 ± 490 µM | self-cleavage kobs at 160 uM GlcN6P [5]: 4.82e-05 ± 2.3e-05 s⁻¹ | self-cleavage kobs at 640 uM GlcN6P [6]: 0.000233 ± 6.3e-05 s⁻¹ | self-cleavage kobs at 2500 uM GlcN6P [7]: 0.000524 ± 0.00012 s⁻¹ | self-cleavage kobs at 10000 uM GlcN6P [3]: 0.000599 ± 0.0001 s⁻¹
